# Laboratory results reported in the DeepSol protein solubility set.
# Test: soluble on expression in E. coli; label from the status in PepcDB or PDB records
row,Sequence,soluble on expression in E. coli
1,PMVALVGARNASSLGLRMARKLAAALGEAGYVVVSGLARGIDAEAHAAALGQGTVAVQAGGVDVIYPAENAGLAAEIAARGCRISEQPMGLVPQARHFPLRNRIVSGLARAVVVVEAAARSGSLITAREALDQGREVLAVPGHPFDPRAAGGNQLIREGATLVRHAADVIEAIGTAHPA,not soluble
2,SEQETRGANEAIDFNDELRNRREKLAALRQQGVAFPNDFRRDHTSDQLHEEFDAKDNQELESLNIEVSVAGRMMTRRIMGKASFVTLQDVGGRIQLYVARDSLPEGVYNDQFKKWDLGDIIGARGTLFKTQTGELSIHCTELRLLTKALRPLPDKFHGLQDQEVRYRQRYLDLIANDKSRQTFVVRSKILAAIRQFMVARGFMEVETPMMQVIPGGASARPFITHHNALDLDMYLRIAPELYLKRLVVGGFERVFEINRNFRNEGISVRHNPEFTMMELYMAYADYHDLIELTESLFRTLAQEVLGTTKVTYGEHVFDFGKPFEKLTMREAIKKYRPETDMADLDNFDAAKALAESIGITVEKSWGLGRIVTEIFDEVAEAHLIQPTFITEYPAEVSPLARRNDVNPEITDRFEFFIGGREIGNGFSELNDAEDQAERFQEQVNAKAAGDDEAMFYDEDYVTALEYGLPPTAGLGIGIDRMIMLFTNSHTIRDVILFPAMRPQK,soluble
3,MDTLQNMRAFSSVAQAGSFTAAAAVLDTTTANVSRAVSNLEAHLQTRLLNRTTRRIALTEAGKRYLLRCEQILASVEEAEAEASDAHARPAGQLKVHSMPGVGQHYVIDAIARYRRNHPDVAFDLTMTHRVPDLLEEGFDVSIVLASELADSGFVSQRLGITYSIVCASPEYVKTFGMAHKPADLLNHACLRLVSPVFPLDKWLFDGPEGQEMVTINSSPLLVNSADAMKTAISSGMGIGILPIYSAIEGLRNGTLVRVLSDYRSQELNLYAIYPSRQYLDAKIRTWVEYLRGSLPEILAADEADLHVQALKASC,not soluble
4,MVGIRRNKGHGEATIFTLRELADATNNFSTECLLGRGGFGSVYKAFLNDRQVVAVKQLDLNGLQGNREFLVEVLMLSLLHHPNLVKLFGYCVDGDQRLLIYEYMPLGSLEDRLHDLRPGQEPLDWTTRMKIAADAAAGLEYLHDEAIPAVIYRDIKPSNILLGEGYNAKLSDFGLAKLGPVGDKTHVTTRVMGTHGYCAPEYLSTGKLTIKSDIYSFGVVFLELITGRRALDSNRPPDEQDLVAWARPLFKDQRKFPKMADPSLHGHFPKRGLFQALAIAAMCLQEKAKNRPSIREVAVALSYLASQTHESQNTAARHTLPGPSVPRVLDNQINQDTSLPSQHGVHMPPLAGTDHMVQEVKENCRSSSHRPGRGRVTPNGADRERALAEANVWVEAWRRQEKTSKMR,not soluble
5,MGLEVAADSVGSALAAQDGGAIRVELCGGLDGGGLTPSFGTLAVVRERLQIPLYVLIRPRVGDFVFDAAEVEVMRRDVEQCVRLGCDGVVLGALDPQGQVDLPAMRALIEAAGTLGVTFHRAIDVSADPARVLEDAITLGCERVLTSGARASALEGVETIAALVRQAGERISIMPGAGVSAANVQALRAGTGAREFHASARGPVAAQVHAPHPYITDLGGDYQRTDVARVRSIVQLLQTALEHHHHHH,not soluble
6,MRALIIVDVQNDFCEGGSLAVTGGAALARAISDYLAEAADYHHVVATKDFHIDPGDHFSGTPDYSSSWPPHCVSGTPGADFHPSLDTSAIEAVFYKGAYTGAYSGFEGVDENGTPLLNWLRQRGVDEVDVVGIATDHCVRQTAEDAVRNGLATRVLVDLTAGVSADTTVAALEEMRTASVELVCSS,soluble
7,KTTTTIYDKNKEYAGKLSGQKGTYVELNAISDHLKNAVIATEDRTFYENNGVNFKRFFLAVATLGKFGGGSTITQQLAKNAYLSQDQTIKRKAREFFLALELTKKYSKAEILTMYLNNSYFGNGVWGVEDASRKYFGTSAANLTVDEAATLAGMLKGPEVY,not soluble
8,MVTFNCEVCNDTVPKKNTEKHYYRCPNAYYTCIDCSKTFEDGVSYKNHTSCISEDEKYQKALYKGNKKQKQKQQQKQQQKQHQHQPVATPAKKVEKPVIKKAEKVEKTSNGIELHKGKSLYKILKTMKDKGAKKTFLKSLVVDSEGQIRYAKE,soluble
9,MGIDKELYKACETALKQCMGVKPGETVLVIADEPEREIGYHLWMKAKELGAEAIYVEILPRKMHGEEPPKPVAEAMKVADVVIAPTSKSITHTLAKKEACERGARVATLPGITREIFVRTMSADYEGMLELTNKIADVLDKGKEVHILTPLGTDLKFSIEGRKARRSTGIYRNPGECGNLPGAEAYIAPLEGTANGRVVIDGSMAGIGVLKEPIEIIVKDGFAEDIRGGEEAEKLREILSRYGKEARNIAEFGVGTNPKARISGNILEDEKVFGTVHIALGSNYDFGGKVKAPVHLDGIIKEPTVLIDGKYLFKDGNLVI,soluble
10,MRDFLNTKNQTNQSVYLAILRIKMKTPYQIQFEAFNADDFYTEAHAKLYAQFADNLINEGNYSIVYKGVAHACYTPITIDKAPHLKCFVLAPLAVLPEHQGKGYATQLMEQAESELGADVIFVLGDPKHYARRFNAQHNVALPIGSDESPDFWFARELTTDALDGIGQSSSTIKGVFADPIMWSHPDEQI,not soluble
11,MSLMKQNPILITGGTGTVGSRIASRLIKLGYRVRIASRKKGALADAEYVYFNWKYASSFTPALEQVKQIYLVAPVGVFDPAPYVLPFLKEAKRLGAKRVVMQSASVVSENGPVFGALHQAVREFPEWTVLRPSYFMQNFINVQHRMSIQTEGRITTASGEGKLGFIDADDIAETAVRALIDDVPHQTHHILTGPEALSYAEAAEIIGAAAGRRVEHVSISRSELQHKMEAGGLPADYAHFMAKLDEAISHGAEHRVTDTVKRVTGKEPRSLSEFAAAHAAYWTSFWTEEGGSHHHHHH,soluble
12,SLDPSKVTSMSAVEFTPLPTCLQHRSCDACMSSDLTFNCSWCHVLQRCSSGFDRYRQEWMDYGCAQEAEGRMCEDFQD,soluble
13,MNRTKGDEEEYWNSSKFKAFTFDDEDDELSQLKESKRAVNSLRDFVDDDDDDDLERVSWSGEPVGSISWSIRETAGNSGSTHEGREQLKSRNSFSSYAQLPKPTSTYSLSSFFRGRTRPGSFQSLSDALSDTPAKSYAPELGRPKGEYRDYSNDWSPSDTVRRLRKGKVCSLERFRSLQDKLQLLEEAVSMHDGNVITAVLIFLKRTLSKEILFRELEVRQVALRHLIHFLKEIGDQKLLLDLFRFLDRTEELALSHYREHLNIQDPDKRKEFLKTCVGLPFSAEDSAHIQDHYTLLERQIIIEANDRHLESAGQTEIFRKHPRKASILNMPLVTTLFYSCFYHYTEAEGTFSSPVNLKKTFKIPDKQYVLTALAARAKLRAWNDVDALFTTKNWLGYTKKRAPIGFHRVVEILHKNNAPVQILQEYVNLVEDVDTKLNLATKFKCHDVVIDTYRDLKDRQQLLAYRSKVDKGSAEEEKIDALLSSSQIRWKN,soluble
14,MTLPFKNGRGTMKINGVTIQMLPAASGDCIYLEFPDSDFRMLIDGGYAKTYQKYLKKFLLKLAAEGKRLNLIVVTHIDDDHISGIRALLKENGDSRNPKIIEIDEIWFNSLNQCITSRNAEQGMSFAVKIILKSMCSTDIDFECEYKKQNISYTNGKNLAELIQAGGYRWNASVVNNLVSKGQIVQFGDLKITILNPGIETLTKMGKKWLYHLKQINSNNIEITRDPLFDAAFEGFLLNNEKNIEFKQENISYSSEDLDWLDKYAEYKDIEMDSKITNCSSIAILIDYKDIKMLFPGDSPIQLFENELPKILDVIKLPHHGSAKNISLEFIKNTKVKYYLLSTDGKRYIDHPGKAVIANIIKNTGNNTELIKNYEIKFLKGLGKLDAED,not soluble
15,MNVLRPTLLTLACLLASPGFADDLPSLGDASSAIVSPQQEYQLGRAWLALLRSQVSQLNDPQLKDYVETSVYKLVETSQVNDRRLEFILINSPQLNAFAAPGGIIGVNGGLFLNAQTEGEYASVLAHELAHLSQRHFARGVEAQQRMQVPMMAALLAGIVIAAAGAGDAGIATIAGTQAAAIQEQRRFSRQNEQEADRIGILNLEKAGYDPRSMPTMFERLMRQYRFDAKPPEFLLTHPVTESRIADTRNRAEQARQGGTEDSLRYQLIRARVQLTYEESPGLAAKRFRAQLDENPKNDIARYGLAIAQIKGSQWNEARENLKPLLAKSPNDVTYNLAQIELDMANSRLPDAQTRVERMLNLYPGNYPLNQIRVDLLLKQNRPADAEKALEGLLKSRPDDPDVWYLVAETRGLSGNIIGLHQARAEYFALVGDYRQAIQQLDFAKRRAGSNFPLSSRIDARQREMMDQEQMVKDMMRLEHHHHHH,soluble
16,MEKKLPRIKALLTPGEVAKRSGVAVSALHFYESKGLITSIRNSGNQRRYKRDVLRYVAIIKIAQRIGIPLATIGEAFGVLPEGHTLSAKEWKQLSSQWREELDRRIHTLVALRDELDGCIGCGCLSRSDCPLRNPGDRLGEEGTGARLLEDEQN,soluble
17,MDMDREQSVQHFLDLIKKSHRGKFKIYIGMIAGVGKSYRMLQEAHELLENGVDVQIGYIETHGRAGTEALMQGLPVIPRRKIFYKGKELEEMDVDAIIRLHPEIVIVDELAHTNVEGSLNEKRWQDVMTLLDEGINVISAINIQHIESVNEEVQEITGIEVKERVPDSVLQEADEVVNIDLTAEELISRLKAGKIYRPEKIQTALDNFFRTENILQLRELALKEVALRVEKKVENEVVMGVSVGIRHEKFMACISSHEKTPRRIIRKAARLATRYNTTFVALYVQTPRESMDRIDLASQRYLLNHFKLVAELGGEVIQVQSKDILGSIVKVCRDKQISSVCMGTPNLRFPHAICSILGYRKFLNNLSQANVDLIILA,not soluble
18,GPGSMSSERYVDGDLGEPFNSAEPLTLPVVVQLLRGRRDTSLDHPASRLIEKTCRQVELMQETCADECRVQRVMETRLRLVNKNNRQQMNAHLGNFVVGEDGFATLPPESDDFLDTAEEEAMKMFEVVALGTLQPKTADEARELIPSLGRFEPADLNKVLEMLDSL,not soluble
19,VTALDWRSALTADEQRSVRALVTATTAVDGVAPVGEQVLRELGQQRTEHLLVAGSRPGGPIIGYLNLSPPRGAGGAMAELVVHPQSRRRGIGTAMARAALAKTAGRNQFWAHGTLDPARATASALGLVGVRELIQMRRPLRDIPEPTIPDGVVIRTYAGTSDDAELLRVNNAAFAGHPEQGGWTAVQLAERRGEAWFDPDGLILAFGDSPRERPGRLLGFHWTKVHPDHPGLGEVYVLGVDPAAQRRGLGQMLTSIGIVSLARRLGGRKTLDPAVEPAVLLYVESDNVAAVRTYQSLGFTTYSVDTAYALAGTDN,not soluble
20,MSLEHLHELVGSVDVVLSDIWGVVHNGLESFPDACAALKTARDQGRTVVLITNAPRPADSVQRQLRKLDVPDDCYDAIVSSGDLTRIYVAEHPGQSIYWLGPDRDNSIYRGLDAVLTPLEKADYIICTGPFDDETESAEDYREMMGQALERKLTLVCANPDIVVERGDRLIYCAGAIAELYRELGGDVIFYGKPHRPIYDRAMALAREIRGVDTPVQRVLAIGDSVRTDLAGAQGYGIDLLFVTRGIHADAFEGIDRLDTAAVNELFGHPPLALTRELREGHHHHHH,soluble
